Experimental data taken from patent publication US7414023 (dated 2008).
Bridge positions count the residues as written; N and C are the ends. Ends that are not written are not given here.

T1: cathepsin G (human, UniProt P08311)
T1 chain: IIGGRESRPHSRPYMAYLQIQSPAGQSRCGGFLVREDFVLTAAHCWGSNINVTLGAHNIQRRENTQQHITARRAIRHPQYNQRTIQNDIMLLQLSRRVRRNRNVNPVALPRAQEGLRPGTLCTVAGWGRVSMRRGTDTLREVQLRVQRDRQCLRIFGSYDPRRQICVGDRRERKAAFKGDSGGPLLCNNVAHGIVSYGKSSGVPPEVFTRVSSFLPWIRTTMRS


Tests used:
PSA [1] = target: T2, PSA (human, UniProt P07288); test: SPR, 0 uM Zn2+
cathepsin G = target: T1, cathepsin G; test: other, IFMA
PSA [2] = target: T2, PSA; test: competition, IFMA with free PSA
PSA [3] = target: T2, PSA; test: SPR, 1 uM Zn2+
PSA [4] = target: T2, PSA; test: SPR, 30 uM Zn2+
PSA [5] = target: T2, PSA; test: SPR, 10 uM Zn2+
hK2 = hK2 (human, UniProt P20151); test: other, IFMA
trypsin = test: other, IFMA
PSA-API complex = PSA-API complex (human, UniProt P07288); test: other, IFMA
PSA [6] = target: T2, PSA; test: SPR
PSA-ACT complex = PSA-ACT complex (human, UniProt P07288); test: other, IFMA
PSA [7] = target: T2, PSA; test: other, IFMA

hK2, sequence (P20151 25-261): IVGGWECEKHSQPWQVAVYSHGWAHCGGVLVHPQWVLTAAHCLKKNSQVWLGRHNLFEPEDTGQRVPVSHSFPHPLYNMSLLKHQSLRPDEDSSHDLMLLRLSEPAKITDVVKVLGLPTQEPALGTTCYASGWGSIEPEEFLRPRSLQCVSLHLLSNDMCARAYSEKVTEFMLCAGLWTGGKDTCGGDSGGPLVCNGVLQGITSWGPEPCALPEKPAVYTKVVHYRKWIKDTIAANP

Binder | Kd (PSA [1]) [nM] | binding result (cathepsin G) | IC50 (PSA [2]) [nM] | Kd (PSA [3]) [nM] | Kd (PSA [4]) [nM] | Kd (PSA [5]) [nM] | binding result (hK2) | binding result (trypsin) | binding result (PSA-API complex) | Kd (PSA [6]) [nM] | binding result (PSA-ACT complex) | binding result (PSA [7])
CVFTSDYAFC (disulfide 1-10 (inferred); also: GST fusion, site not given here) [GST-A-1] | 7800 | no binding | 3.3 | 2600 | 1000 | 1400 | no binding | no binding | no binding | 7800 | no binding | –
CVFAHNYDYLVC (disulfide 1-12 (inferred); also: GST fusion, site not given here) [GST-B-2] | 3500 | no binding | 1 | 3100 | 800 | 600 | no binding | no binding | no binding | 3500 | no binding | –
CVAYCIEHHCWTC (disulfide 1-13, 5-10; also: GST fusion, site not given here) [GST-C-4] | – | no binding | 0.7 | – | 860 | – | no binding | no binding | no binding | – | no binding | –
CLSTCAQSCRISC (also: GST fusion, disulfide pairing not given here) [GST-D-1] | – | – | – | – | – | – | – | – | – | – | – | no binding
